From patent US20240301373, “FANZORS ARE RNA-GUIDED NUCLEASES ENCODED IN EUKARYOTIC GENOMES” (Massachusetts Institute of Technology, published 2024)

Columns and labels:
[1] = target: T1, KnFNuc (Fanzor1) (Klebsormidium nitens); experiment: pulldown; co-purified fRNA sequenced
T1 chain: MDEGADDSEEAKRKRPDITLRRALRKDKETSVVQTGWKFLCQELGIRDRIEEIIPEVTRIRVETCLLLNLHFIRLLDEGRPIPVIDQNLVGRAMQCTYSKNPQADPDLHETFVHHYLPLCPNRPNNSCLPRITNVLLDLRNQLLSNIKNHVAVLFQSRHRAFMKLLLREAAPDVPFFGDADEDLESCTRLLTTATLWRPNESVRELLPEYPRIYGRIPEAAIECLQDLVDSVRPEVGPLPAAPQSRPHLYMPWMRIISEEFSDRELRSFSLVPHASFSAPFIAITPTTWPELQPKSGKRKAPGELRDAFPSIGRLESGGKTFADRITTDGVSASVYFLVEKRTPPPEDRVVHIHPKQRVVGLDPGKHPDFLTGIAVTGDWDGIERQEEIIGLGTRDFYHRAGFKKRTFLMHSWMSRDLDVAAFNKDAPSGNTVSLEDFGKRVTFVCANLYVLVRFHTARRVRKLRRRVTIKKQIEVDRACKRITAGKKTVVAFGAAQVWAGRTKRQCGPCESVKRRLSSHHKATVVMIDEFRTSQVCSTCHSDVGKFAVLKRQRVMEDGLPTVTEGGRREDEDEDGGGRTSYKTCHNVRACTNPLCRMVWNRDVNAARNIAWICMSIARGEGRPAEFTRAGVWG
Text: (§1) This study sought to explore whether Fanzor2 proteins from diverse eukaryotes also are active RNA-guided nucleases. Three Fanzor2 representatives from three animals and a Fanzor1 representative from a plant were chosen for this study: 1) Fanzor2 from Aercenaria mercenaria (Venus clam, MmFNuc), 2) Fanzor2 from Dreissena polymorpha (Zebra mussel, DpFNuc), 3) Fanzor2 from Batillaria attramentaria (Japanese mud snail; BaFNuc), and 4) Fanzor1 from Klebsormidium nitens (freshwater green algae; KnFNuc) (FIG. 21A). […] Constructs for co-expression of the fRNA and Fanzor nuclease were cloned in a cell-free transcription/translation system, allowing for isolation of the resulting RNPs to study their fRNA sequences and cleavage activity (FIG. 21B). […] These fRNAs were highly structured with diverse structural motifs and domains (FIG. 28B).

[2] = target: T2, BaFNuc (Batillaria attramentaria); experiment: pulldown; co-purified fRNA sequenced
T2 chain: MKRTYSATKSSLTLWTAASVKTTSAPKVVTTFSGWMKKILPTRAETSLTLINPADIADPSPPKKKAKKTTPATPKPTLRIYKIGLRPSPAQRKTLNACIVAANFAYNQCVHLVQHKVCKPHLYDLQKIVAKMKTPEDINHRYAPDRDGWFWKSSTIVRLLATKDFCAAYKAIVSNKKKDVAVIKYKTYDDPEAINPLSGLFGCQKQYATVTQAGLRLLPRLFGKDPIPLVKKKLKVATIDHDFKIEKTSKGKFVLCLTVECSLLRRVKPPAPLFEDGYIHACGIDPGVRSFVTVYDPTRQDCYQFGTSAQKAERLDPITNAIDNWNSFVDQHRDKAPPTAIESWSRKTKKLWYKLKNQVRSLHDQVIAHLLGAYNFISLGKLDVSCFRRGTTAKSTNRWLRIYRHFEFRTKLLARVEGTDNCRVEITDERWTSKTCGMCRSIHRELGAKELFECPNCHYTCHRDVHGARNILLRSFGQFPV
Text: as §1

[3] = target: T3, MmFNuc (Mercenaria mercenaria); experiment: pulldown; co-purified fRNA sequenced
T3 chain: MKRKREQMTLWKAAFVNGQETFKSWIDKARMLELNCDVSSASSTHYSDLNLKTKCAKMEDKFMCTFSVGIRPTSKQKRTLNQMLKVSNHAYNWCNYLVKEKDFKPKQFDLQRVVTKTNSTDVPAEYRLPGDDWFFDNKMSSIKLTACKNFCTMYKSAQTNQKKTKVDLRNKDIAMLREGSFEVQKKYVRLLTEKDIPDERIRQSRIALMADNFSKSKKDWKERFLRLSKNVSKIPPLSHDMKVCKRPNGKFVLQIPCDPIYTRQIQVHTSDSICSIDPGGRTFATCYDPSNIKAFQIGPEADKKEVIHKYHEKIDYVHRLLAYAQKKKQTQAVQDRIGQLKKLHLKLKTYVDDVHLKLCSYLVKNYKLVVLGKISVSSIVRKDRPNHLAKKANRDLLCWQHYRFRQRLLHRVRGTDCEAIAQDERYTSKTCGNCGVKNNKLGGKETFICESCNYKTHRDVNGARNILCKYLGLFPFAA
Text: as §1

[4] = target: T4, DpFNuc (Dreissena polymorpha); experiment: pulldown; co-purified fRNA sequenced
T4 chain: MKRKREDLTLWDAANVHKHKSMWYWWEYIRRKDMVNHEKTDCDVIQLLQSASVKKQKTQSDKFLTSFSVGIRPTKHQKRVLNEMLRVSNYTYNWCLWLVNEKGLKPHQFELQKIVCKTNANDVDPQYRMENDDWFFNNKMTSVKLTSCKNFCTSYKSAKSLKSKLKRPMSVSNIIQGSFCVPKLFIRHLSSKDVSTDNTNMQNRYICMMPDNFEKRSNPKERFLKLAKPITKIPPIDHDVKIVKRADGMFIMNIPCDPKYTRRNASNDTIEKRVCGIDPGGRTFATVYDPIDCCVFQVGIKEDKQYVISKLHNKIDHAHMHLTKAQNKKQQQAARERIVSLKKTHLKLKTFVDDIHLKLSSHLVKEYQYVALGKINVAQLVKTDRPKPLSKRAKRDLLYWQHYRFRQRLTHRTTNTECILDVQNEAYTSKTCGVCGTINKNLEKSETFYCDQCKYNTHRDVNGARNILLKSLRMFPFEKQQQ
Text: as §1

[5] = target: T5, ApmFNuc (ApmHNuc, Isvmimi Fanzor2) (Acanthamoeba polyphaga mimivirus, UniProt Q5UPQ8 SEQ:1-520); experiment: pulldown; co-purified fRNA identified by small RNA sequencing; conditions: tags: Strep tag; RNP co-expressed with fRNA in E. coli
T5 sequence: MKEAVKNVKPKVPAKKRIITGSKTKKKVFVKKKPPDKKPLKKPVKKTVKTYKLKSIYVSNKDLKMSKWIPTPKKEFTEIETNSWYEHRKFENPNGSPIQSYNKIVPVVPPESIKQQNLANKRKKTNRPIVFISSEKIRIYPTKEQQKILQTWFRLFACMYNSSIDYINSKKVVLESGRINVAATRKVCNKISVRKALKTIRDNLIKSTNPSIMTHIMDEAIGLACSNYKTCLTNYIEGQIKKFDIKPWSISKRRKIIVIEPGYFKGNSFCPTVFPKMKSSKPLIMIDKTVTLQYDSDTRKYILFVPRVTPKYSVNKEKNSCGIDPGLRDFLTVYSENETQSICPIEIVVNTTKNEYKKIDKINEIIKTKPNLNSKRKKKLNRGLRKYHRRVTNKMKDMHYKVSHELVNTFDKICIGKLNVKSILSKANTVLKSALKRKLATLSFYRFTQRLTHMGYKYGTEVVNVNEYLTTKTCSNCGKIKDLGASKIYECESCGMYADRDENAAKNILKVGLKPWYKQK

B1: KnFNuc fRNA scaffold (ssRNA)
RNA: GGAGGAGGGAGGACAAGCUACAAGACGUGCCACAACGUGCGAGCGUGUACGAACCCGCUCUGUCGCAUGGUGUGGAAUAGAGACGUCAACGCAGCUCGUAACAUAGCUUGGAUCUGUAUGAGCAUAGUCAGAGGCGAGGGCAGGCCAGCGGAGUUCACGAGAGCAGGAAUGUGAGGAUGACUGAGAAUUAGUCGAAAGACAUAGCUGCCUAGAAACGAGUUCAUCUAGGCACUUCGGUGAGAAUCCGAGAUACGGCUGGGUACUGUGGCGAGUGUGCCAUUUUACUCUGAACAGACUGUA
- binding result [1]: binds

B2: BaFNuc fRNA scaffold (ssRNA)
RNA: CGCUCGAGUGGAGGGAACUGACAACUGUAGAGUGGAGAUCACCGACGAACGCUGGACCUCAAAGACGUGUGGCAUGUGCAGAUCCAUCCACCGCGAACUUGGGGCAAAAGAACUAUUCGAGUGCCCCAACUGCCACUACACCUGCCACAGAGACGUGCACGGAGCUCGAAACAUCUUGCUGAGAAGCUUCGGACAGUUUCCAGUCUAGAAAAACACGAACUUUUUCCUUGGCCCAAGGAUUGCCAAACACCACUCAAAUCCUCGUUCAGGGGCCUCGAGUGGCUGGGCAUAUAUGGGUUA
- binding result [2]: binds

B3: MmFNuc fRNA scaffold (ssRNA)
RNA: ACUUCCAAGACCUGUGGUAAUUGCGGUGUGAAGAACAACAAACUUGGUGGAAAGGAAACGUUUACUUGUGAGUGUUGCAAUUACAAAACUCAUCGAGACGUCAACGGAGCGAGAAACAUUCUGUGCAAAUACUUGAAACUUUUUCCAUUCGCAGCAUAACGAAAGAAACUGACAAUCGAUUUUUUCGGGUUCGAUUCUAUCCCACUUGACUCAAAGAGUCAGAGGGCUCGAAUACAUUUUCUGCACAGGUUUUGCUAAUGCAAGAUCUGGGGCAAGAAUGUGUUCGGGUCAAAUGAGUUA
- binding result [3]: binds

B4: DpFNuc fRNA scaffold (ssRNA)
RNA: AUUGGAUGUUCAAAAUGAAGCAUACACUUCGAAGACGUGUGGAGUGUGUGGAACAAUAAACAAAAAUCUAGAAAAGAGUGAAACAUUUUAUUGCGAUAACUGCAAAUAUAACACACACAGAGACGUUAAUGGUGCUAGAAAUAUUUUGCUAAAAUCGUUGCGCAUGUUUCCAUUUGUCAAUUCGCAGUUAUAAUUACUCUGUAACAAUUAGGUCGAUCCAUCCUAAAUUCGAAAGUCCAUUGCUACGAGACUUUGCGUAUGCUUAGUCCAGGGCAAUUUUCUGCCGAAUGAAAUGGGUUA
- binding result [4]: binds

B5: ApmFNuc fRNA scaffold (21 nt 3' guide appended) (ssRNA)
RNA: AAAAAUAGUCUAAUAAAAUCAGGGGUACAUUCCGCUAGUACUCCACCCUACGGGUUAAGCAAAUGAGAAUAUCGAAACGGUAUGCACAGGAUUCUUCGAGUGAUAAUCUUAGGAUGACUCACUAAGGAGAUGACUAAAGUGUAUCAUUCAAUAUUGUAUUGAACGGUAUUCUUCCAUAGAGAGUUGAUUUUUGGAGUAUCCAGAAAUAUCAACUUUUUAUGAGCGG
- binding result [5]: binds
